This note sets out measurements from patent US20140086924A1 (UNIVERSITY OF MASSACHUSETTS, published 2014).

What is called Kd is the equilibrium constant for the complex coming apart.

Assay [1] deals with T1, full length Hsp90alpha (human, UniProt P07900 1-732).
T1 construct: also called r-Hsp90; rHsp90
Description: ELISA, peptide immobilized, recombinant Hsp90 added, detection with anti-Hsp90 (n=2); no blank bar on the sheet. The method, then: Indicated synthetic peptides from the Survivin core sequence Lys 79-Leu 87 (SEQ ID NO:24) were synthesized carrying single alanine substitutions at each indicated position (alanine scanning mutagenesis). Individual peptides were immobilized at indicated increasing concentrations on plastic microtiter plates, incubated with recombinant Hsp90, and binding to the various substrates was determined with an antibody to Hsp90 by ELISA and quantified by absorbance at OD₄₀₅. […] In contrast, no differences were observed between the wild type peptide sequence and alanine substitutions of the residues flanking this sequence, Lys 79, Ala 85, Phe 86, and Leu 87.
On the technique in general: An ELISA detects its analyte on a solid surface through an enzyme-linked reagent.

The target in assay [2] is T1, full length Hsp90alpha. Kind of assay: competition ELISA, peptide inhibits the binding of recombinant survivin to Hsp90.
Assay [3] concerns the target T1, full length Hsp90alpha. Kind of assay: competition ELISA: peptide (20 µg/ml) preincubated with Hsp90, then added to immobilized full length Survivin (the competitor). As to the method:
(§1) ELISA experiments were performed by immobilizing recombinant Survivin (r-Survivin) ([…]) or recombinant Hsp90 (r-Hsp90) (10 μg/ml) on plastic microtiter wells (Immulon™-2, Dynatech Laboratories, Chantilly, Va.) using bicarbonate buffer, pH 9.5 (100 μl/well) for 18 hours at 4° C. Bound protein was blocked with 3% gelatin for 1 hour at 37° C., rinsed with washing buffer (TBS pH 7.4, 0.1% Tween™, 0.1% BSA) and incubated for 1 hour at 37° C. with different concentrations of a test protein to determine if the test protein bound the immobilized protein.
ELISA experiments were performed essentially as in Example 2 with the following variations. 20 μg/ml of each recombinant Survivin peptide (expressed in E. coli) was preincubated with Hsp90 at 2.5 mg/ml for 16 hours at 4° C. After binding and blocking of full length Survivin to wells in a microtiter plate, the preincubated mixtures of Hsp90 and Survivin peptides were added to the wells and incubated for 1 hour at 37° C. Wells were washed, incubated with primary antibody, washed again, and bound antibody was quantified as described above. Each experiment was repeated three times and the standard deviation is shown. The twelve amino acid Survivin peptide including Lysine 79-Lysine 90 (K79-K90; SEQ ID NO:3) was an especially effective inhibitor of Hsp90-Survivin binding interactions.

The target in another assay is T2, Hsp 27 (UniProt P04792 1-205).
T2 construct: Endogenous protein of Raji cells
T2 sequence (P04792 whole entry): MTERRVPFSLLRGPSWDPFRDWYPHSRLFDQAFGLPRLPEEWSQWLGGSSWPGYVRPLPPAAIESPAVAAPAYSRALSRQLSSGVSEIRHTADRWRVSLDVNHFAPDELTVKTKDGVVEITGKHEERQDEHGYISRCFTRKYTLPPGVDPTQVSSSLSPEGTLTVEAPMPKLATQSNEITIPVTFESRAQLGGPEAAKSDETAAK
Kind of assay: affinity chromatography of Raji cell extracts on immobilized peptide, Western blot. The source says: A Survivin Ile⁷⁴-Leu⁸⁷ peptide (SEQ ID NO:4) containing a binding site for Hsp90 was immobilized onto a Sulfolink™ Coupling Gel (Pierce, Rockport, Ill.), and used to fractionate Raji cell extracts. Proteins were identified in the flow trough (FT) or eluate (E) by Western blotting with the indicated antibodies. Hsp90 and Hsp70 clearly bound the Survivin peptide including residues Ile⁷⁴-Leu⁸⁷. The anti-Hsp70 antibodies were obtained from Abcam, Cambridge, Mass. (cat. No. ab6535).

Assay [4] concerns the target T3, GST-N-Hsp90 (amino acids 1-272 of SEQ ID NO:21) (human, UniProt O02705 1-273 (pig entry)).
T3 construct: also called N-terminal domain of Hsp90; Hsp90 N-terminal fragment; not shown: glutathione S-transferase (GST) frame of vector pGex-4T3
Kind of assay: ELISA, peptide immobilized at rising concentrations, Hsp90 N-terminal fragment added, detection with anti-Hsp90. As to the method: as §1
(§2) FIGS. 24A and 24B identify the location of P31 peptide's binding site as the N-terminus domain of Hsp90. The generation of recombinant Hsp90 fragments of the N-terminus or C-terminus is described in Example 3. ELISA experiments were performed as described in Example 2, except the indicated increasing concentrations of the P31 peptide (squares; SEQ ID NO:19) or control P33 peptide (circles; SEQ ID NO:25) were immobilized on plastic microtiter plates and incubated with the indicated Hsp90 N-terminal and C-terminal fragments. After washing, binding of the individual Hsp90 fragments to the immobilized peptides was detected with an antibody to Hsp90. Antibody to the C-terminal and N-terminal fragments of Hsp90 were obtained from BD/Transduction Laboratories and Santa Cruz Biotechnology, Inc. (Santa Cruz, Calif.), respectively.

The target in assay [5] is T4, GST-C-Hsp90 (amino acids 629-732 of SEQ ID NO:21) (human, UniProt A5A6K9 630-733 (Pan troglodytes entry)).
T4 construct: not shown: glutathione S-transferase (GST) frame of vector pGex-4T3
T4 sequence (A5A6K9 630-733): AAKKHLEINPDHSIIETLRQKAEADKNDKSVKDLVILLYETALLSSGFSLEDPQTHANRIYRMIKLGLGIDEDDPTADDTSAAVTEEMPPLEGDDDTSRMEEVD
Kind of assay: ELISA, peptide immobilized at rising concentrations, Hsp90 C-terminal fragment added, detection with anti-Hsp90. The method, then:
as §1, §2

The target in assay [6] is T5, GST-Hsp90 (amino acids 1-732) (human, UniProt P07900 1-732).
T5 construct: also called Sepharose-GST-Hsp90; GST fusion of full length Hsp90; not shown: glutathione S-transferase (GST) frame of vector pGex-4T3
Description: pull-down of 35S in vitro translated XIAP BIR2 with GST-Hsp90, autoradiography. The source says: (§3) The cDNAs for XIAP and XIAP Baculovirus IAP Repeats (BIR) domains (BIR1, Met 1 to Ser 123; BIR2, Arg 124 to Pro 260; and BIR3, Ser 261 to Gln 336) were obtained from retro-transcription (SuperScript™ First Strand Synthesis System for RT-PCR, Invitrogen) of RNA extracted from HeLa cells (TRI Reagent™, Molecular Research Center Inc.), amplified by PCR, and cloned in pcDNA3 vector (Invitrogen). pcDNA3-XIAP and pcDNA3-XIAP BIR domains were translated in vitro using the TNT™ Quick Coupled Transcription/Translation System (Promega) in the presence of ³⁵S labeled methionine (Amersham), and 2, 5, and 8 μl of the reaction were incubated with 10 μg GST or GST fusion proteins as described above.
(§4) pcDNA3-XIAP and pcDNA3-XIAP BIR domains were translated in vitro as described in Example 4. […] GST-Hsp90 or GST was mixed with ³⁵S in vitro translated XIAP or its individual Baculovirus IAP Repeats: BIR1, BIR2, and BIR3. Reactions were centrifuged and proteins that associated with the pellet were detected by autoradiography.

In assay [7] the target is T1, full length Hsp90alpha. Kind of assay: surface plasmon resonance, biotin peptide on streptavidin chip, r-Hsp90 injected. As to the method:
Wild type Survivin peptide 77 to 91 (SEQ ID NO:22) or the corresponding C84A mutant 77-91 peptide ([…]; SEQ ID NO:23) was synthesized with an N-terminal biotin and immobilized on streptavidin coated chips (SA5) purchased from Biacore Inc. (Piscataway, N.J.). Increasing concentrations (100 nM-10 μM) of purified r-Hsp90 suspended in 10 mM HEPES, 150 mM NaCl, 3 mM EDTA, 0.005% polysorbate-20, 1 mM DTT, were then injected in […] over the immobilized peptides. A constant flow rate of […] was maintained, and the dissociation phase was followed for 300 seconds. Surfaces were regenerated using […] of 1 M NaCl/50 mM NaOH after each dissociation phase. A new injection cycle was initiated only after 10 min post-regeneration to ensure complete removal of NaCl and NaOH. The collected data were analyzed using the Biaeval 3.0 software package from Biacore Inc.
Sensorgrams (FIG. 10B) indicate binding of the Survivin peptides to Hsp90, measured by an increase in surface plasmon resonance during analyte flow over the chip surface, with the nonspecific signal from the biotin-only surface subtracted.
Background: SPR reads the build-up and loss of mass on a sensor chip optically.

For assay [8], the target named is T5, GST-Hsp90 (amino acids 1-732). Kind of assay: pull-down of 35S in vitro translated XIAP BIR3 with GST-Hsp90, autoradiography.
Text: as §3, §4

Ends that are not written are not given here. * marks the point of attachment. Biotin = O=C1N[C@H]2[C@H](CS[C@H]2CCCCC(=O)*)N1

B1: Survivin core sequence peptide Lys 79-Leu 87 (peptide)
peptide: KHSSGCAFL
notes: Synthetic, immobilized on plastic microtiter plates; also called Survivin peptide (K79-L87)
Regarding B1, the binding result with full length Hsp90alpha [1] is on record as “binds”. On the same count and under the same terms, the entry for KHSSGCAFA (also called L87A) [Survivin Lys 79-Leu 87 peptide with alanine substitution of Leu 87] is “binds”. AHSSGCAFL (also called K79A) [Survivin Lys 79-Leu 87 peptide with alanine substitution of Lys 79]: the binding result with full length Hsp90alpha [1] was “binds”. On the same count and under the same terms, the entry for KHSSGCAAL (also called F86A) [Survivin Lys 79-Leu 87 peptide with alanine substitution of Phe 86] is “binds”.

RQIKIWFQNRRMKWKKKHSSG [shorter cell permeable Survivin peptide (Antennapedia carrier sequence fused to Survivin K79-G83)]: in the assay with full length Hsp90alpha [2], the binding result is reported as “binds”.

B2: Survivin peptide Lysine 79-Lysine 90 (peptide)
peptide: KHSSGCAFLSVK
notes: Called both synthetic and recombinant (expressed in E. coli) in the same paragraph; also called K79-K90
In the case of B2, the binding result with full length Hsp90alpha [3] is “binds”.

B3: Survivin Ile74-Leu87 peptide (peptide)
peptide: IDDHKKHSSGCAFL
notes: Immobilized on Sulfolink Coupling Gel; also called Survivin peptide (Ile74-Leu87)
For the molecule B3, the binding result with Hsp 27 is recorded as “no binding”.

B4: P31 survivin peptide (Antennapedia carrier sequence fused to Survivin K79-L87) (peptide)
peptide: Biotin-RQIKIWFQNRRMKWKKKHSSGCAFL
notes: also called Survivin cell permeable peptide
B4: the binding result was “binds” with full length Hsp90alpha [2], “binds” in assay [4] and “no binding (tested: 0.25 mg/ml)” in assay [5].

B5: XIAP BIR2 fragment (Arg 124 to Pro 260) (other, human, UniProt P98170 124-260, looked up)
chain: RDHFALDRPSETHADYLLRTGQVVDISDTIYPRNPAMYSEEARLKSFQNWPDYAHLTPRELASAGLYYTGIGDQVQCFCCGGKLKNWEPCDRAWSEHRRHFPNCFFVLGRNLNIRSESDAVSSDRNFPNSTNLPRNP
notes: range 124-260; 35S-labelled, in vitro translated
Take B5: the binding result in assay [6] is reported as “no binding”.

B6: wild type Survivin peptide 77 to 91 (peptide)
peptide: Biotin-HKKHSSGCAFLSVKK
notes: Immobilized on streptavidin coated Biacore chips; also called wild type peptide
For B6, in the assay with full length Hsp90alpha [7], binding was characterised by a dissociation constant (Kd) of 83.8 nM and the “off-rate, fold slower than the C84A peptide (SEQ ID NO:23)” value worked out at 10 fold.

B7: C84A mutant Survivin 77-91 peptide (peptide)
peptide: Biotin-HKKHSSGAAFLSVKK
notes: Immobilized on streptavidin coated Biacore chips; also called C84A peptide
As for B7, the binding result with full length Hsp90alpha [7] is on record as “binds”.

B8: XIAP BIR3 fragment (Ser 261 to Gln 336) (other, human, UniProt P98170 261-336, looked up)
chain: SMADYEARIFTFGTWIYSVNKEQLARAGFYALGEGDKVKCFHCGGGLTDWKPSEDPWEQHAKWYPGCKYLLEQKGQ
notes: range 261-336; 35S-labelled, in vitro translated
For the molecule B8, the binding result in [8] is reported as “no binding”.
